The source of these data is patent US20180148493A1.

For orientation: IC50 means the concentration needed to halve the response being measured.

The experiment has as its target HLA-A2 (Homo sapiens).

B1: … (peptide)
peptide: AIIRILQQL
modifications: not checked
As to B1, the IC50 is 385 nM.
